# B1: Pistol ribozyme (parent)
# chain: GGGUCGUUGUUCCAUAAUCGCGUGGAUAUGGCACGCAAGUUUCUACCGGGCACCGUAAAUGUCCGACUGGAGCCGUUCGGGCGGCUAUAAACAGACCUCAGGCCCGAAGCGUGGCGGCACCUGCCGCCGGUGGUAAAAAAGAUCGGAAGAGCACACGUCU
# Variants of: B1
# Assay: aptazyme ON/OFF ratio, guanine; higher = stronger switching; co-transcriptional cleavage with and without guanine
row,Variant,aptazyme ON/OFF ratio
1,U8G G9A U10C C13A,1.04
2,U8G G9A U10C C13G,1.03
3,U8G G9A U10C C13U,1.07
4,U8G G9A U10C C12G,1.2
5,U8G G9A U10C C12U,1.14
6,U8G G9A U10C U11G C12U C13G,1.18
7,U8G G9A U10C U11G C12U C13A,1.34
8,U8G G9A U10C U11G C12U C13U,1.21
9,U8G G9A U10C U11G C12G C13A,1.34
10,U8G G9A U10C U11G C12G C13U,1.14
11,U8G G9A U10C U11G C12G C13G,1.42
12,U8G G9A U10C U11A,1.37
13,U8G G9A U10C U11C,1.03
14,U8G G9A U10C U11G,1.34
15,U8G G9A U10G U11G C12U C13A,1.36
16,U8G G9A U10G U11G C12U C13U,1.29
17,U8G G9A U10G U11G C12U C13G,1.46
18,U8G G9A U10G C12G,1.34
19,U8G G9A U10G C12U,1.39
20,U8G G9A U10G C12A,1.44
21,U8G G9A U11G C12G C13A,1.27
22,U8G G9A U11G C12G C13U,1.23
23,U8G G9A U11G C12G C13G,1.57
24,U8G G9A U10G U11C C12A C13G,1.16

row,Variant,aptazyme ON/OFF ratio
1,U8G G9A U10G U11C C12A C13A,1.18
2,U8G G9A U10G U11C C12A C13U,1.18
3,U8G G9A U10G U11G C12G C13G,1.44
4,U8G G9A U10G U11G C12G C13U,1.37
5,U8G G9A U10G U11G C12G C13A,1.19
6,U8G G9A U10C U11C C12A C13A,1.05
7,U8G G9A U10C U11C C12A C13U,1.07
8,U8G G9A U10C U11C C12A C13G,1.12
9,U8G G9A U11A C13U,1.23
10,U8G G9A U11A C13G,1.07
11,U8G G9A U11A C13A,1.14
12,U8G G9A U10C U11A C12U,1.1
13,U8G G9A U10C U11A C12A,1.22
14,U8G G9A U10C U11A C12G,1.14
15,U8G G9A U10G U11C C12A,1.19
16,U8G G9A U10G U11C C12U,1.02
17,U8G G9A U10G U11C C12G,1.19
18,U8G G9A U10G U11G C12U,1.12
19,U8G G9A U10G U11G C12A,1.32
20,U8G G9A U10G U11G C12G,1.33
21,U8G G9A U10C U11A C12G C13U,1.15
22,U8G G9A U10C U11A C12G C13G,1.07
23,U8G G9A U10C U11A C12G C13A,1.16
24,U8G G9A U10G C13A,0.997

row,Variant,aptazyme ON/OFF ratio
1,U8G G9A U10G C13U,1.58
2,U8G G9A U10G C13G,1.34
3,U8G G9A U10G C12A C13U,1.45
4,U8G G9A U10G C12A C13A,1.29
5,U8G G9A U10G C12A C13G,1.18
6,U8G G9A U10G U11C C12U C13A,1.06
7,U8G G9A U10G U11C C12U C13G,1.2
8,U8G G9A U10G U11C C12U C13U,1.06
9,U8G G9A U11C C12U,1.07
10,U8G G9A U11C C12A,1.34
11,U8G G9A U11C C12G,1.25
12,U8G G9A U10C U11C C13G,1.03
13,U8G G9A U10C U11C C13U,1.03
14,U8G G9A U10C U11C C13A,0.984
15,U8G G9A U10G U11A C12G,1.6
16,U8G G9A U10G U11A C12A,1.34
17,U8G G9A U10G U11A C12U,1.35
18,U8G G9A U11C C12A C13G,1.16
19,U8G G9A U11C C12A C13U,1.3
20,U8G G9A U11C C12A C13A,1.34
21,U8G G9A U11G C12A C13A,1.16
22,U8G G9A U11G C12A C13G,1.2
23,U8G G9A U11G C12A C13U,1.24
24,U8G G9A U11A C12U C13U,1.27

row,Variant,aptazyme ON/OFF ratio
1,U8G G9A U11A C12U C13A,1.24
2,U8G G9A U11A C12U C13G,1.18
3,U8G G9A U11C C12G C13A,1.17
4,U8G G9A U11C C12G C13U,1.4
5,U8G G9A U11C C12G C13G,1.18
6,U8G G9A U10G U11A C12A C13A,1.29
7,U8G G9A U10G U11A C12A C13G,1.27
8,U8G G9A U10G U11A C12A C13U,1.48
9,U8G G9A U10G U11G C12A C13A,1.57
10,U8G G9A U10G U11G C12A C13U,1.41
11,U8G G9A U10G U11G C12A C13G,1.16
12,U8G G9A U11A C12A,1.33
13,U8G G9A U11A C12U,1.43
14,U8G G9A U11A C12G,1.17
15,U8G G9A U11G C12U,1.34
16,U8G G9A U11G C12A,1.08
17,U8G G9A U11G C12G,1.23
18,U8G G9A U10C U11G C12A C13G,1.18
19,U8G G9A U10C U11G C12A C13U,1.16
20,U8G G9A U10C U11G C12A C13A,1.18
21,U8G G9A U10C C12A C13U,1.17
22,U8G G9A U10C C12A C13G,1.09
23,U8G G9A U10C U11G C13U,1.09
24,U8G G9A U10C U11G C13A,1.11

row,Variant,aptazyme ON/OFF ratio
1,U8G G9A U10C U11G C13G,1.16
2,U8G G9A U10C C12G C13U,1.33
3,U8G G9A U10C C12G C13G,1.2
4,U8G G9A U10C C12G C13A,1.21
5,U8G G9A U10G U11C C13G,1.05
6,U8G G9A U10G U11C C13U,1.05
7,U8G G9A U10G U11C C13A,1.06
8,U8G G9A U10G U11A C12U C13A,1.34
9,U8G G9A U10G U11A C12U C13U,1.47
10,U8G G9A U10G U11A C12U C13G,1.33
11,U8G G9A U11C,1.05
12,U8G G9A U11A,1.59
13,U8G G9A U11G,1.18
14,U8G G9A U10G C12U C13U,1.18
15,U8G G9A U10G C12U C13A,1.32
16,U8G G9A U10G C12U C13G,1.16
17,U8G G9A U11C C12U C13G,1.27
18,U8G G9A U11C C12U C13A,1.25
19,U8G G9A U11C C12U C13U,1.13
20,U8G G9A U10G U11A C12G C13U,1.24
21,U8G G9A U10G U11A C12G C13A,1.21
22,U8G G9A U10G U11A C12G C13G,1.03
23,U8G G9A U10C U11C C12U,1.02
24,U8G G9A U10C U11C C12A,1.08

row,Variant,aptazyme ON/OFF ratio
1,U8G G9A U10C U11C C12G,1.05
2,U8G G9A U10C U11A C12A C13A,1.15
3,U8G G9A U10C U11A C12A C13G,1.11
4,U8G G9A U10C U11A C12A C13U,1.16
5,U8G G9A U10G C12G C13A,1.52
6,U8G G9A U10G C12G C13U,1.27
7,U8G G9A U10G C12G C13G,1.16
8,U8G G9A U10C U11C C12G C13U,1.05
9,U8G G9A U10C U11C C12G C13A,1.09
10,U8G G9A U10C U11C C12G C13G,1.1
11,U8G G9A U11A C12A C13G,1.25
12,U8G G9A U11A C12A C13A,1.19
13,U8G G9A U11A C12A C13U,1.15
14,U8G G9A U10G U11A,1.05
15,U8G G9A U10G U11G,1.59
16,U8G G9A U10G U11C,1.05
17,U8G G9A U10G U11C C12G C13A,1.27
18,U8G G9A U10G U11C C12G C13U,1.4
19,U8G G9A U10G U11C C12G C13G,1.25
20,U8G G9A U11A C12G C13A,1.08
21,U8G G9A U11A C12G C13U,1.26
22,U8G G9A U11A C12G C13G,1.17
23,U8G G9A U10C U11C C12U C13G,1.04
24,U8G G9A U10C U11C C12U C13U,1.03

row,Variant,aptazyme ON/OFF ratio
1,U8G G9A U10C U11C C12U C13A,1.04
2,U8G G9A U10C U11A C13U,1.08
3,U8G G9A U10C U11A C13A,1.1
4,U8G G9A U10C U11A C13G,1.06
5,U8G G9A U11C C13G,1.01
6,U8G G9A U11C C13A,1.07
7,U8G G9A U11C C13U,1.06
8,U8G G9A U10G U11A C13G,1.21
9,U8G G9A U10G U11A C13A,1.14
10,U8G G9A U10G U11A C13U,1.14
11,U8G G9A U10G U11G C13G,1.15
12,U8G G9A U10G U11G C13U,1.45
13,U8G G9A U10G U11G C13A,1.56
14,U8G G9A U10G,2.04
15,U8G G9A U10C U11G C12A,1.06
16,U8G G9A U10C U11G C12U,1.29
17,U8G G9A U10C U11G C12G,1.45
18,U8G G9A U10C U11A C12U C13A,1.04
19,U8G G9A U10C U11A C12U C13U,1.05
20,U8G G9A U10C U11A C12U C13G,1.05
21,U8G G9A U10C C12U C13U,1.11
22,U8G G9A U10C C12U C13G,1.08
23,U8G G9A U10C C12U C13A,1.14
